# According to patent publication US20040253247A1 (Genentech, published 2004):
# Read-outs that look alike come from different tables or passages of the source. Bridges are numbered along the chain shown (N, C = ends). Where no end group is shown, it is not given here. code n = not defined here
# T1: ovalbumin (UniProt P01012 2-386)
# T1 sequence (looked up): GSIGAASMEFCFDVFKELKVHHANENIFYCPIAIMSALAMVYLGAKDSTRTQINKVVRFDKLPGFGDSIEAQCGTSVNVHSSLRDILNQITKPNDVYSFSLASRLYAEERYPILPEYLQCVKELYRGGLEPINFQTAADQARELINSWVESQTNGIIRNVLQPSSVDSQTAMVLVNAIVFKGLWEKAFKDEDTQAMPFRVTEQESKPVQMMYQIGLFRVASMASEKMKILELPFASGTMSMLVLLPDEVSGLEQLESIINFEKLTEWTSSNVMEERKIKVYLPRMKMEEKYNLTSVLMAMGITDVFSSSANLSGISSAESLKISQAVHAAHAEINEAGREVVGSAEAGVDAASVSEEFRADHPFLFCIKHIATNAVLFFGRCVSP
# Assays:
# human albumin [1] = target: T2, human albumin (human, UniProt P02768 25-609); assay: phage ELISA
# Protocol: (§1) Phage ELISA—Phage clones (˜10¹¹ phage) were added to plates coated with rat, rabbit or human albumin. The microtiter plate was washed with wash buffer and bound phage were detected with HRP/Anti-M13 Conjugate. The amount of HRP bound was measured using ABTS/H₂O₂ substrate and monitoring the change at 405 nm.
# (§2) This was tested using a phage ELISA.
# rat albumin [2] = target: T3, rat albumin (rat, UniProt P02770 25-608); assay: phage ELISA
# T3 sequence (P02770 25-608 limits assumed): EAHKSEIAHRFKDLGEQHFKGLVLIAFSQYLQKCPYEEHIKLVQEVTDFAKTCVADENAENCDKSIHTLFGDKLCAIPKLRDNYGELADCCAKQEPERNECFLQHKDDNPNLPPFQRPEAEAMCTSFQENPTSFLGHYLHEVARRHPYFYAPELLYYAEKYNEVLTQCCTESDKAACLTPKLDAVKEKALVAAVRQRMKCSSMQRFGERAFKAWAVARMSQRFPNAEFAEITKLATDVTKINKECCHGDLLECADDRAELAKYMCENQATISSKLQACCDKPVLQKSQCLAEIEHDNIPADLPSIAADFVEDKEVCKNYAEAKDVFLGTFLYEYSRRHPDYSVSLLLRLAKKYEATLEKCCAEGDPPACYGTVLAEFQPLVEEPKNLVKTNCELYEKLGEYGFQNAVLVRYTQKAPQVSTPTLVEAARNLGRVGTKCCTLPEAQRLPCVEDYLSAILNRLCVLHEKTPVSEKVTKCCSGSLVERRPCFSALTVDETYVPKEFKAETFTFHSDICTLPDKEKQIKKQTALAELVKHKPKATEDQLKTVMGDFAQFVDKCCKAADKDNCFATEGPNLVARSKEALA
# Protocol: as §1, §2
# ovalbumin = target: T1, ovalbumin; assay: phage ELISA, photograph of the plate
# rabbit albumin [3] = target: T4, rabbit albumin (rabbit, UniProt P49065 25-608); assay: SA08b binding assay: competition with biotinylated SA08b for immobilized albumin
# T4 sequence (P49065 25-608 limits assumed): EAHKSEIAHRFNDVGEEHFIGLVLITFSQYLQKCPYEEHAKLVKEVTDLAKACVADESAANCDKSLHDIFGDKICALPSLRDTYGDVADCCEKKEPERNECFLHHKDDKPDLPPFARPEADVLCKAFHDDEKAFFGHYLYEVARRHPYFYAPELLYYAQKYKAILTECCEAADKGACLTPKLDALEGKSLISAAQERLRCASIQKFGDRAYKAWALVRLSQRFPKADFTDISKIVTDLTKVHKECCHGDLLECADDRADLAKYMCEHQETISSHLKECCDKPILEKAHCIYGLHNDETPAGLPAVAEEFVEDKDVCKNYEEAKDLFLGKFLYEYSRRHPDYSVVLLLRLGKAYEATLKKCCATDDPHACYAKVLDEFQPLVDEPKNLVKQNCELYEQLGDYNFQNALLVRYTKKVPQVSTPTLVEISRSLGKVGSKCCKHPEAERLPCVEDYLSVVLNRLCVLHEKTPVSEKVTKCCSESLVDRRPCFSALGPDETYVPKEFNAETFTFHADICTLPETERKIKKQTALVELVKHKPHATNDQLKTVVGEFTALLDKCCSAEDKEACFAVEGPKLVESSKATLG
# Protocol: (§3) Plates were blocked using Blocker Casein (Pierce Chemical, Rockford, Ill.) for 1 hr, at 25° C. […] The amount of HRP bound was measured using ABTS/H₂O₂ substrate and monitoring the change at 405 nm.
# mouse albumin [4] = target: T5, mouse albumin (mouse, UniProt P07724 25-608); assay: as above
# T5 sequence (P07724 25-608 limits assumed): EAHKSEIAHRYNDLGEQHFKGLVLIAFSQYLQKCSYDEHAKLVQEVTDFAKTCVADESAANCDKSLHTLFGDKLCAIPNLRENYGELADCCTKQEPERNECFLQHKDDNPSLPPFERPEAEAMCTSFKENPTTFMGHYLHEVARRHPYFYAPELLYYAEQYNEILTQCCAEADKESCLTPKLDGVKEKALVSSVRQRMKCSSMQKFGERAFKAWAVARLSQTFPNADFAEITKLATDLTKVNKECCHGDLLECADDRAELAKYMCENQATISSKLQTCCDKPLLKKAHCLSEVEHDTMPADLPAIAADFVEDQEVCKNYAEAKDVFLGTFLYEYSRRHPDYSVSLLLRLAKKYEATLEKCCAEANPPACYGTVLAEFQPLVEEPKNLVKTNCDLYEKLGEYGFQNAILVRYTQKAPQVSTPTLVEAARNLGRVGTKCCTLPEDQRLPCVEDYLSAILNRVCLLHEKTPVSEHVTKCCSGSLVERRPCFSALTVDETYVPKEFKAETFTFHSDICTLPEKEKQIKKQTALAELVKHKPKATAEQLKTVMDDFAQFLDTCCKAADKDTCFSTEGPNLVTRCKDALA
# Protocol: as §3
# rat albumin [5] = target: T3, rat albumin; assay: as above
# Protocol: as §3
# rabbit albumin [6] = target: T4, rabbit albumin; assay: phage ELISA
# Protocol: as §1, §2
# human albumin [7] = target: T2, human albumin; assay: phage ELISA; remark: listed apart in the source
# Protocol: as §1
# bovine albumin = bovine albumin (bovine, UniProt P02769 25-607); assay: phage ELISA, photograph of the plate
# Sequence of bovine albumin (P02769 25-607 limits assumed): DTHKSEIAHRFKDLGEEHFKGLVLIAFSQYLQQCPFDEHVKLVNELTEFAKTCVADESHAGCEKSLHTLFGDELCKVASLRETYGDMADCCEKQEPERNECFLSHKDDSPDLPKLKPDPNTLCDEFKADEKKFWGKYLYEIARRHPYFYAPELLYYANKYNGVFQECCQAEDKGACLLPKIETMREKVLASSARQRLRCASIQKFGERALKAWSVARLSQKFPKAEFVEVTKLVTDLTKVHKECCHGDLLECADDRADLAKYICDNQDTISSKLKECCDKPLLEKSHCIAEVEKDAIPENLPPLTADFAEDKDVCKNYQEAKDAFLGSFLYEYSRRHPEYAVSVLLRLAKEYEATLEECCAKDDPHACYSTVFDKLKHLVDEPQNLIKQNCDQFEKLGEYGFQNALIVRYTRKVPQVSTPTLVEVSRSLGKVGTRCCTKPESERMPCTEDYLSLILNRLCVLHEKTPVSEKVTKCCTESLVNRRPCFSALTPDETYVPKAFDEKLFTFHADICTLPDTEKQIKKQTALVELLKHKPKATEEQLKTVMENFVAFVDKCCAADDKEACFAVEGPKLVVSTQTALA
# rabbit albumin [8] = target: T4, rabbit albumin; assay: phage ELISA; remark: listed apart in the source
# Protocol: as §1
# rat albumin [9] = target: T3, rat albumin; assay: phage ELISA; remark: listed apart in the source
# Protocol: as §1
# IgG-Fc = target: T6, IgG-Fc (UniProt P01857-1 108-330 = IgG part, limits assumed); assay: phage ELISA, M13/gIII display, ALA scan
# T6 construct: domain: IgG-Fc; also called biotinylated-IgG-Fc; biotin-IgG-Fc
# mouse albumin [10] = target: T5, mouse albumin; assay: phage ELISA, photograph of the plate
# rat albumin [11] = target: T3, rat albumin; assay: phage ELISA, photograph of the plate
binder,measurement,setting,value
MDELAFYCGIWECLMHQEQK (phage clone selected on rabbit SA) [BB],binding result,human albumin [1],no binding
same,binding result,rat albumin [2],no binding
"QGLIGDICLPRWGCLWGDSV (not fully specified (bridges); printed as Gln-Gly-Leu-Ile-Gly-Asp-Ile-Cys-Leu-Pro-Arg-Trp-Gly-Cys-Leu-Trp-Gly-Asp-Ser-Val; cysteine pairing not given here, phage clone, Library RB) [RB-R8]",binding result,ovalbumin,no binding
"Ac-MEDICLPRWGCLWED-{code n} (disulfide 5-11 (inferred); reading uncertain; also: printed as Met-Glu-Asp-Ile-Cys-Leu-Pro-Arg-Trp-Gly-Cys-Leu-Trp-Glu-Asp, synthesized peptide) [SA12]",IC50,rabbit albumin [3],1760 nM
same,IC50,mouse albumin [4],13 nM
same,IC50,rat albumin [5],205 nM
"RAPESFVCYWETICFERSEQ (not fully specified (bridges); printed as Arg-Ala-Pro-Glu-Ser-Phe-Val-Cys-Tyr-Trp-Glu-Thr-Ile-Cys-Phe-Glu-Arg-Ser-Glu-Gln; cysteine pairing not given here, phage clone selected on human SA) [HB]",binding result,rabbit albumin [6],no binding
same,binding result,human albumin [1],binds
same,binding result,rat albumin [2],binds
"EVRSFCTDWPAEKSCKPLRG (not fully specified (bridges); printed as Glu-Val-Arg-Ser-Phe-Cys-Thr-Asp-Trp-Pro-Ala-Glu-Lys-Ser-Cys-Lys-Pro-Leu-Arg-Gly; cysteine pairing not given here, phage clone selected on human SA) [HA]",binding result,rabbit albumin [6],no binding
same,binding result,human albumin [1],binds
same,binding result,rat albumin [2],no binding
"DICLPRWGCLW (phage clone, Library RC) [RC-R13]",binding result,human albumin [7],no binding
same,binding result,bovine albumin,no binding
same,binding result,ovalbumin,no binding
"DICLPRWGCLW-{code n} (disulfide 3-9 (inferred); reading uncertain; also: printed as Asp-Ile-Cys-Leu-Pro-Arg-Trp-Gly-Cys-Leu-Trp, synthesized peptide) [SA04]",IC50,rabbit albumin [3],8540 nM
same,IC50,mouse albumin [4],40 nM
same,IC50,rat albumin [5],787 nM
GENWCDSTLMAYDLCGQVNM (phage clone selected on rabbit SA) [BA],binding result,human albumin [1],no binding
same,binding result,rat albumin [2],no binding
KSCSELHWLLVEECLF (phage clone selected on rabbit SA) [BD],binding result,human albumin [1],no binding
same,binding result,rat albumin [2],no binding
"DTCADLVRLGLECWA (phage clone, Library RD) [RD-R2]",binding result,rabbit albumin [8],no binding
same,binding result,human albumin [7],no binding
same,binding result,ovalbumin,no binding
"QGLIGDICLPRWGCLWGDSV-{code n} (disulfide 8-14 (inferred); reading uncertain; also: printed as Gln-Gly-Leu-Ile-Gly-Asp-Ile-Cys-Leu-Pro-Arg-Trp-Gly-Cys-Leu-Trp-Gly-Asp-Ser-Val, synthesized peptide) [SA07]",IC50,rabbit albumin [3],30 nM
same,IC50,mouse albumin [4],6 nM
same,IC50,rat albumin [5],35 nM
DLCDVDFCWF (phage clone selected on rabbit SA) [BC],binding result,human albumin [1],no binding
same,binding result,rat albumin [2],no binding
"DSEVCYFPGICWSGT (phage clone, Library HBC) [HBC-H1]",binding result,rabbit albumin [8],no binding
same,binding result,rat albumin [9],no binding
same,binding result,ovalbumin,no binding
"QRHPEDICLPRWGCLWGDDD (not fully specified (bridges); cysteine pairing not given here, phage clone, Library RB) [RB-H1]",binding result,ovalbumin,no binding
"HSQMEDICLPRWGCLWGDEL (not fully specified (bridges); cysteine pairing not given here, phage clone, Library RB) [RB-B8]",binding result,ovalbumin,no binding
"Ac-EDICLPRWGCLWEDD-{code n} (disulfide 4-10 (inferred); reading uncertain; also: printed as Glu-Asp-Ile-Cys-Leu-Pro-Arg-Trp-Gly-Cys-Leu-Trp-Glu-Asp-Asp, synthesized peptide) [SA09]",IC50,rabbit albumin [3],1690 nM
same,IC50,mouse albumin [4],6 nM
same,IC50,rat albumin [5],258 nM
DTCVDLVRLGLECWG (phage clone selected on rat SA) [RD],binding result,rabbit albumin [6],no binding
same,binding result,human albumin [1],no binding
"MEDICLPRWGCLWED-{code n} (disulfide 5-11 (inferred); reading uncertain; also: printed as Met-Glu-Asp-Ile-Cys-Leu-Pro-Arg-Trp-Gly-Cys-Leu-Trp-Glu-Asp, synthesized peptide) [SA05]",IC50,rabbit albumin [3],804 nM
same,IC50,mouse albumin [4],6 nM
same,IC50,rat albumin [5],161 nM
WEADCAWHLGELVWCTKVAE (M13/gIII phage display; ALA Scan on Phage) [phage clone WEADCAWHLGELVWCTKVAE],EC50,IgG-Fc,4 nM
WEPDCAWHLGELVWCTKVEE (M13/gIII phage display; ALA Scan on Phage) [phage clone WEPDCAWHLGELVWCTKVEE],EC50,IgG-Fc,36 nM
CGCVDVSDWDCWSECLWSHGA (phage clone selected on rat SA) [RE],binding result,rabbit albumin [6],no binding
same,binding result,human albumin [1],no binding
"EMCYFPGICWM (not fully specified (bridges); printed as Glu-Met-Cys-Tyr-Phe-Pro-Gly-Ile-Cys-Trp-Met; cysteine pairing not given here, phage clone selected on human SA) [HC]",binding result,rabbit albumin [6],no binding
same,binding result,human albumin [1],binds
same,binding result,rat albumin [2],binds
"RAAESSVCYWPGICFDRTEQ (not fully specified (bridges); cysteine pairing not given here, phage clone, Library HB) [HB-H2]",binding result,rabbit albumin [8],no binding
same,binding result,mouse albumin [10],no binding
same,binding result,rat albumin [11],no binding
same,binding result,ovalbumin,no binding
"EEDLCLPVWGCLWGA (not fully specified (bridges); cysteine pairing not given here, phage clone, Library RBC) [RBC-R14]",binding result,rabbit albumin [8],no binding
same,binding result,human albumin [7],no binding
same,binding result,bovine albumin,no binding
same,binding result,ovalbumin,no binding
DLCLRDWGCLW (phage clone selected on rat SA) [RC],binding result,rabbit albumin [6],no binding
same,binding result,human albumin [1],no binding
"Ac-MEDICLPRWGCLWEDD-{code n} (disulfide 5-11 (inferred); reading uncertain; also: printed as Met-Glu-Asp-Ile-Cys-Leu-Pro-Arg-Trp-Gly-Cys-Leu-Trp-Glu-Asp-Asp, synthesized peptide) [SA11]",IC50,rabbit albumin [3],1210 nM
same,IC50,mouse albumin [4],17 nM
same,IC50,rat albumin [5],232 nM
RNEDPCVVLLEMGLECWEGV (phage clone selected on rat SA) [RA],binding result,rabbit albumin [6],no binding
same,binding result,human albumin [1],no binding
